Results as given in PMC4552671.

Target: Urokinase plasminogen activator surface receptor (uPAR) on metastatic KHOS osteosarcoma cells (human (endogenous in KHOS)) (UniProt Q03405)
Chain of UniProt Q03405 (Q03405 other isoform, or with tags, fused parts or gaps): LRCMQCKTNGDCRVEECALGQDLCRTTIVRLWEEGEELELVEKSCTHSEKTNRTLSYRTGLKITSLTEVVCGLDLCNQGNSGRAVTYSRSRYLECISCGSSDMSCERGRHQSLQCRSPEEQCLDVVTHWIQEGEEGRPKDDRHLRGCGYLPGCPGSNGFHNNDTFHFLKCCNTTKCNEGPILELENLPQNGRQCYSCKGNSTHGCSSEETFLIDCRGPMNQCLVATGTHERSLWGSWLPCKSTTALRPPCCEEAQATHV

Question: With “recombinant human urokinase plasminogen activator (rh-uPA), high molecular weight form” as the substance, how does the increase in migration of metastatic KHOS cells over basal level (Transwell, 24 h) with 0.5 and 1.0 ug/mL rh-uPA read?
Answer: Its increase in migration of metastatic KHOS cells over basal level (Transwell, 24 h) with 0.5 and 1.0 ug/mL rh-uPA is 166%.
